The record followed here is PMC4666614, “Identification of New Regions in HIV-1 gp120 Variable 2 and 3 Loops that Bind to α4β7 Integrin Receptor” (PLoS ONE, 2015).

In the assay the target is α4β7 integrin receptor on RPMI8866 cells (human (endogenous in RPMI8866)) (UniProt P13612).
Sequence of α4β7 integrin receptor on RPMI8866 cells (human (endogenous in RPMI8866)) (P13612 34-1032, chain 1 of 2): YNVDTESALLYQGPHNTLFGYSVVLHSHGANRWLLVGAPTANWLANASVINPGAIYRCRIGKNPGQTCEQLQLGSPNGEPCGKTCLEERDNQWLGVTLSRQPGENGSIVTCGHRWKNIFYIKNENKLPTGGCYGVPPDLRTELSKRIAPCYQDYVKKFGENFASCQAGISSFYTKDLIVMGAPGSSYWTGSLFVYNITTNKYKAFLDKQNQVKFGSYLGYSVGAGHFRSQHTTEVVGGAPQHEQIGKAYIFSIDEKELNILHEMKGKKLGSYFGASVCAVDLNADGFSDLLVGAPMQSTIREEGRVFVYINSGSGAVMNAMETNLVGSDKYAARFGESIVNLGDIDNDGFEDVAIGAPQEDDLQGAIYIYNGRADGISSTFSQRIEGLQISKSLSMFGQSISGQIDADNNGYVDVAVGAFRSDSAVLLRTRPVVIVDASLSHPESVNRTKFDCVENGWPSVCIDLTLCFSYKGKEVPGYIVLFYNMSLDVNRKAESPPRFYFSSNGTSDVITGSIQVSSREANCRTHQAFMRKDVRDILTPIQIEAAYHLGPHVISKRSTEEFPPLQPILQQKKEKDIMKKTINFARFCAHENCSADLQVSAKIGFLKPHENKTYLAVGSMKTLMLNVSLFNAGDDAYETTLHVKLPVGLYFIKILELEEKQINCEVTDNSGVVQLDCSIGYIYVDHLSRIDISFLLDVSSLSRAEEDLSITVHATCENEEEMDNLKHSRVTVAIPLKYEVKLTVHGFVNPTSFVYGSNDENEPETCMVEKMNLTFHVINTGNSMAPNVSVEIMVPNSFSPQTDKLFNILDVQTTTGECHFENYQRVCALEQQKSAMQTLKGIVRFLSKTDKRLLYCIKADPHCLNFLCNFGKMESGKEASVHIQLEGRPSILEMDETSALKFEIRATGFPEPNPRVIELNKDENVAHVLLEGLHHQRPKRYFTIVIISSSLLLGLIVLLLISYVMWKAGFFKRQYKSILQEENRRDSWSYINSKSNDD
Sequence of α4β7 integrin receptor on RPMI8866 cells (human (endogenous in RPMI8866)) (P26010 20-798, chain 2 of 2, further chain): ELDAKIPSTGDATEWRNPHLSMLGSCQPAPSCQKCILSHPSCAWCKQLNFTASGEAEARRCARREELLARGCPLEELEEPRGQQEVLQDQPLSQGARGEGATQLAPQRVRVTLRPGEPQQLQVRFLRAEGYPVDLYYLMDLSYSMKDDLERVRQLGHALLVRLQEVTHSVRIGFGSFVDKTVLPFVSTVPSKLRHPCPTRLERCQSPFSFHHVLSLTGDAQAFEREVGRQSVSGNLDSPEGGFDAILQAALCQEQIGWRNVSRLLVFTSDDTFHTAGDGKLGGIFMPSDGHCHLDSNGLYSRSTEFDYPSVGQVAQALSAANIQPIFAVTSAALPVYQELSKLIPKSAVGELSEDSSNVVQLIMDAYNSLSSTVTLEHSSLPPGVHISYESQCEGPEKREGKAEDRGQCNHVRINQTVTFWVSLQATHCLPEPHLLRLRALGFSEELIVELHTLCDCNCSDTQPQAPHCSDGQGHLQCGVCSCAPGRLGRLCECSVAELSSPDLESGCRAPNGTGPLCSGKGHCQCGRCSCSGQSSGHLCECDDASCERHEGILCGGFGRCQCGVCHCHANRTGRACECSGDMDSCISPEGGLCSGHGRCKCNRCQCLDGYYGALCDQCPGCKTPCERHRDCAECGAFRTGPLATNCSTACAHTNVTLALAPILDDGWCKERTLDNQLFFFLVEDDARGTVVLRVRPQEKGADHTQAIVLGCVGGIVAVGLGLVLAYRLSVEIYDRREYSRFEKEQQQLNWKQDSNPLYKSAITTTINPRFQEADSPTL

On to “HIV-1 envelope protein on 92TH023 virions (primary virus, subtype CRF01_AE) (natural protein)”, for which the % inhibition of α4β7 binding to MAdCAM-1 at p24 0.75–3 ng/well was in the range of 25 to 35%.
